Assay results reported in the supplement of paper PMC9170038.

Tested on: MS2 coat protein
Assay: apparent KD of MS2 coat protein; higher = weaker reporter binding
Details: Eterna round: R107
Procedure, shortened: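 Apparent KD is reported per design as the median of normalised binding-curve fits across its clusters. The RNA switches were made by on-chip transcription from Illumina sequencing clusters. SNAP-549-labelled MS2 coat protein was then added in twofold steps (0.7 or 1.5 nM to 3 µM; 0.8–1.5 h to 10–20 min per step) in 100 mM Tris-HCl pH 7.5, 80 mM KCl, 4 mM MgCl2, without or with constant ligand.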

[1] = input ligand: theophylline 20 uM
[2] = input ligand: tryptophan 2.4 mM
[3] = input ligand: theophylline 2 mM

Sequence | apparent KD of MS2 coat protein (input ligand: arginine 13.2 mM) [nM] | apparent KD of MS2 coat protein [1] [nM] | apparent KD of MS2 coat protein [2] [nM] | apparent KD of MS2 coat protein (input ligand: none) [nM] | apparent KD of MS2 coat protein [3] [nM]
AUUAAUAGUUGUGAUACCAGACGAACAUGAGGAUCACCCAUGUAACUUUUAGGUGUUGUAGUCCCUUGGCAGCACUAUUUAGUUA [JR_SSTheophyB_Sub014] | 29.3 | 48.4 | 33.6 |  | 
AUUAUCAUGGUCAUAUAUAUUUCGUCAGAUACCAGACUAGAUAUAGUCCCUUGGCAGCUGUUACAUGAGGAUCACCCAUGUUAUU [JR_ExcTheophyA_Sub017] | 32.2 | 80.3 | 96.3 |  | 
CAAAACCUUACAGAUACCAGCACAUGAGGAUCACCCAUGUAUUGGACACUUCGCUCAUCGUGCCCUUGGCAGCUGUGGGACGAGG [Tiatenan] | 30.3 | 132 | 77.6 |  | 
CAAACAUGAGGAUCACCCAUGUAAACCGAAGGAGCGACGCAUAAGUCAGGUAGGUCGCGGAAGAUAAAAUAGAACACUGGGCACA [Same State Arginine A GF1] | 18.2 | 19.2 | 19.1 | 17.7 | 17.3
CAAACAUGAGGAUCACCCAUGUAAUCAGAUACCAGUGACGAAAGUCACCCUUGGCAGCUGAGUACAUUAGUUCUAAGGUGUUUGA [EThA NP+V+V2 #6 +-Same Structure] | 32.7 | 61 | 35.7 |  | 
CAAUAUAUAGCGGCCGCCACUUACUCAUGAGGUAACAACAUGAGGAUCACCCAUGUUUGAGGAUCAAGGACCGGGCUAUAUAUUG [AstrosSSTryB#6] | 22.2 | 31.9 |  |  | 32.2
CACAUGAGGAUCACCCAUGUCUGAACUGAAGGAGCGCUAAACAAGGCAGGUAGGUCGCGGAAUCCCGGGUGCAUAUGCACCCGGG [9.aA] | 50.4 | 23.2 | 21.4 | 23.9 | 23.4
CACGAAAGAUCGGCCGCCACUAACCUGUGUGUACUAGCACAUGAGGAUCACCCAUGUUCUUGCGUUAGGACCGGGAUUGAGCGUG [#04 Exclusion Tryptophan B] | 20.9 | 30.7 |  |  | 27.5
CACGGAAGAGUGGAUCACCCUCUUAAUAAACGAGGACCGGUACGGCCGCCACUCGAAAACCGUGACCUGUACGAAAAGUGCAGGA | 31.3 | 202 | 127 | 39.4 | 437
CAGCAACAAUUGGAUACCAGCCAUUACAGGUAUCAUUAUAACAUGAGGAUCACCCAUGUAGGCCCUUGGCAGCCAUUGGUGUAAG [theeternabot_exclusion_MS2_Theo_B_22] | 27.5 | 69 | 40.5 |  | 
CAGCCUGAUUGGUAAAUCCCUCAUCGUGAUACCAGUCGAGUGAUCGACCCUUGGCAGCACAUGAGGAUCACCCAUGUGCGCGUAA [Raisener] | 22 | 34.9 | 24 |  | 
CAUACUUUAGUAUGUAAUGUGGACAGUGAUACCAGAUACGAAAGUAUCCCUUGGCAGCACAACAUGAGGAUCACCCAUGUAUUUU [Theophylline A 3] | 20.9 | 20 | 19.2 |  | 
CAUACUUUAUCCUAUGAGCCUAUUUGUGAUACCAGCAUCUAAAUUUGCCCUUGGCAGCACUUACAUGAGGAUCACCCAUGUUUUA [JR_NU_SSTheophyA_Sub028] | 22 | 33.6 | 24 |  | 
CAUGGCUGUGCGGCCGCCACUGGCUCAUCCUGCAUUACAUGAGGAUCACCCAUGUUGCGGCCUCCCAGGACCGGGCAUAGCCUGA [Abediat] | 39.5 | 511 |  |  | 571
CAUGGGUGGGUGCUGCCACCCAUUGGUGAUACCAGCAUCGAAAGAUGCCCUUGGCAGCACCAACAUGAGGAUCACCCAUGUAAUA [(M)'-(T)'-(M)''-(T1)-(T2)-(M1)-(M2)_Design4] | 58.6 | 145 | 67.8 |  | 
CAUGGGUGGUAUCACCCAUCCAUAGGUGAUACCAGCAUCGAAAGAUGCCCUUGGCAGCACCAACAUGAGGAUCACCCAUGUAAUA [(M)'-(T)'-(M)''-(T1)-(T2)-(M1)-(M2)_Design2] | 48.1 | 189 | 354 |  | 
CCAUAGGGUAAAUACAUAAUCAUAUCUGAAGGAGCGUGGAUAAACACAGGUAGGUCGCAGAAUCACAUGAGGAUCACCCAUGUCU [Same State Arginine A GF11] | 24.5 | 53.5 | 36.5 | 36.1 | 52.6
CCAUGCAGGUCGGCCGCCACUACACACAUGAGGAUCACCCAUGUAGUUACUGGGUGAAGUGGCAGUAGGACCGGGACCUGCAUAU [Brourdmod11] | 94.5 | 330 | 1020 | 284 | 504
CCCGUAAAGGCGGCCGCCACUGUAUGACAUGAGGAUCACCCAUGUAGGGAAAAUGCGAUGGUCGUCAGGACCGGGCCUCUGGCAU [theeternabot_exclusion_MS2_Trp_B_5] | 17.4 | 29.3 |  |  | 28.2
CCUAUGACAUGAGGAUCACCCAUGUUGGAUACCAGCGCAUGAGGACGCCCUUGGCAGCCAAUGAACAUGAGGAUACAUGAGGAUC [Same State Theophylline A 4] | 30.2 | 69.7 | 41.6 |  | 
CCUAUGCAGUCGGCCGCCACUGAAAUAAAUUAUAUUACCUCAGAAACAUGAGGAUCACCCAUGUACAGGACCGGGACUGUAUAGG [Ex Tryptophan B 15] | 26 | 44.2 | 56.3 | 35.3 | 26.2
CCUAUGCAGUCGGCCGCCACUGAAAUCAAUAAGAUUACCUCAGAAACAUGAGGAUCACCCAUGUACAGGACCGGGACUGUAUAGG [Ex Tryptophan B 16] | 20.6 | 41.8 | 84.3 | 40 | 37.2
CCUAUGCAGUCGGCCGCCACUGAACAUGAGGAUCACCCAUGUUUUUAUAAAUAUGGUCCUAUAAUCAGGACCGGGACUGUAUAGG [Ex Tryptophan B 9] | 38.3 | 59.7 | 69.2 | 69.2 | 64.6
CCUGGACAUGAGGAUCACCCAUGUGAGGAUACCAGAUAUCCUGAUAUCCCUUGGCAGCCUCAUUACUUCGCAUUACCGAAACUUC [theeternabot_sameState_MS2_Theo_A_35] | 31.1 | 166 | 57.1 |  | 
CGAAAGCACAUGGGUUGCUUUCGACUGGAAGGAGCGAGCGAAAGCUCAGGUAGGUCGCCAGAAACAUGAGGAUCACCCAUGUAAU [(A)''-(M)'-(A)'(Arg1)-(Arg2)-(M1)-(M2)_Design10] | 21.6 | 27.4 | 22.4 | 18.3 | 21.3
CGAUCUUUCGAAAGAAGGAUCGAGUCUGAUACCAGAGACGAAAGUCUCCCUUGGCAGCAGUGCCAACAUGAGGAUCACCCAUGUA [Theophylline A 9] | 20.7 | 26.3 | 18.9 |  | 
CGAUCUUUCGAAAGAAGGAUCGAUUCUGAUACCAGAGACGAAAGUCUCCCUUGGCAGCAGUGCCAACAUGAGGAUCACCCAUGUA [Theophylline A 8] | 26.4 | 26 | 23.6 |  | 
CGCAACAUGAGGAUCACCCAUGUAAUGACGCGAGGACCGGUACGGCCGCCACUCGCCUGGCAGUGAGCGCAUGCGGCCUGGGUAU [Exclusion Tryp A GF8] | 10.6 | 16.5 |  |  | 14.3
